Data taken from patent US20260139017A1, “COMPOSITIONS AND METHODS USING REELIN IN ALZHEIMER'S DISEASE” (The General Hospital Corporation, priority 2022, published 2026).
“Also recorded” adds a separate entry of the source.

Tests used:
NRP1 = biological target: T1, NRP1 (Homo sapiens, UniProt O14786); assay: Bio-layer interferometry (BLI) of CTR-RELN-NRP-1 interactions; assay type: binding; details: immobilized biotinylated NRP1
T1 construct: purchased R&D 3870-N1-025
T1 sequence (O14786 22-644 isoform O14786-2 limits assumed): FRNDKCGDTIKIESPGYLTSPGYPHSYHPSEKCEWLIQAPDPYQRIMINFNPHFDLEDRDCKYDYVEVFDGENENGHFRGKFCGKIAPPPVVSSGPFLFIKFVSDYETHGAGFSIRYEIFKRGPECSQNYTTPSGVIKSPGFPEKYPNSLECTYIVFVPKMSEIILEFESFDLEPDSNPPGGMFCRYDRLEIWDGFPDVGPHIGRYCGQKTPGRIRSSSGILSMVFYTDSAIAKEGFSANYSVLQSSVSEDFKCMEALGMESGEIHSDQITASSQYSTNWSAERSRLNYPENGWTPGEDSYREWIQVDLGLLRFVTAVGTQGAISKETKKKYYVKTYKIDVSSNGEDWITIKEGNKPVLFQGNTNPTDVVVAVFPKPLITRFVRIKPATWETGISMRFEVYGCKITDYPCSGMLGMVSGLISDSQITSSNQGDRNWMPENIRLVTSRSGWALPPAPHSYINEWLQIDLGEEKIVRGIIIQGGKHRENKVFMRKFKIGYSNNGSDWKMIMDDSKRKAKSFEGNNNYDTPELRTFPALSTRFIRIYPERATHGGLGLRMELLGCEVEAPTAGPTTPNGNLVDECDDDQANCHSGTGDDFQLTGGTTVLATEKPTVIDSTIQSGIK
Protocol: (§1) Bio-layer interferometry (BLI) was additionally used to assess NRP1-protein kinetics at 30° C. and 1000 rpm agitation. 1 mg/mL NRP1 (R&D 3870-N1-025) was biotinylated at a 1:2 molar ratio, desalted, and immobilized on the SA biosensor tip (Pall ForteBio) surface. This was followed by 1) 180 seconds baseline buffer diluent, 2) loading of the ligand (NRP1), 3) 180 seconds baseline buffer diluent, 4) 240 seconds association (analyte), and 5) 300 seconds disassociation in assay buffer. Assay buffer: SD Buffer (pH7.4 PBS, 0.05% tween20, 0.01% BSA).
The experimental data were fit with the 1:1 binding model and analyzed with global fitting using Octet Data Analysis software to calculate KD.
as §1, with “was” for “was additionally”, “agitation using previously published methods.” for “agitation.”

SH-SY5Y cells = assay: Lactate dehydrogenase assay in SH-SY5Y cells treated with oligomeric Tau; assay type: cell-based
Protocol: A lactate dehydrogenase assay was performed in SH-SY5Y cells treated 24 h with pre-formed oligomeric Tau (oTau) either alone or in the presence of C-term RELN WT (184I). The lactate dehydrogenase assay was performed as follows. 100 k neuroblastoma (SH-SY5Y, ATCC) cells/well were plated in 96-well TC treated plates in growth media (DMEM/F12, Gibco, 10% heat-inactivated FBS, R&D, 200 ug normocin) and allowed to attach and grow overnight. Next day, test compounds were allowed to thaw on wet ice. Phenol-free and serum free DMEM/F12 no serum no antibiotic media was warmed and a 50 mL aliquot was sterile filtered (0.22 um) as test media. In TC cabinet, thawed test compounds were mixed via pipetting then added to final concentration for each test condition in filtered test media and mixed through pipetting. Test conditions were allowed to pre-incubate for 15 mins at RT in TC cabinet. Wells were gently aspirated and gently washed with 200 uL prewarmed Test media, then gently aspirated and 100 μL of test conditions were added and allowed to incubate in TC incubator at 5% CO2 for 21 hrs. LDH performed using Roche kit according to manufacturer's protocol.

ka (NRP1): 9400 M⁻¹ s⁻¹
kd (NRP1): 0.00573 s⁻¹
B1: pfcn-huIgG2-C-termH3447WT (protein)
chain: MYRMQLLSCIALSLALVTNSAPLERKSSVECPPCPAPPVAGPSVFLFPPKPKDTLMISRTPEVTCVVVDVSHEDPEVQFNWYVDGVEVHNAKTKPREEQFNSTFRVVSVLTVVHQDWLNGKEYKCKVSNKGLPAPIEKTISKTKGQPREPQVYTLPPSREEMTKNQVSLTCLVKGFYPSDIAVEWESNGQPENNYKTTPPMLDSDGSFFLYSKLTVDKSRWQQGNVFSCSVMHEALHNHYTQKSLSLSPGARTSTRKQNYMMNFSRQHGLRHFYNRRRRSLRRYP
cytotoxicity of construct (LDH) (SH-SY5Y cells): did not show any cytotoxicity
oligomeric Tau-induced cytotoxicity (LDH) (SH-SY5Y cells; oTau with construct): reduction of oTau-derived cytotoxicity; also recorded: Reduced oligomeric Tau-induced cytotoxicity
